Measured values taken from PMC7935953, “Insights on autophagosome–lysosome tethering from structural and biochemical characterization of human autophagy factor EPG5” (Communications Biology, 2021).

Columns and labels:
Conditions in all cases: both partners purified
His-LC3A = His-LC3A (human, UniProt Q9H492 1-121); experiment: ITC; 0.6 mM peptide titrated into 0.06 mM His-LC3/GABARAP protein in 20 steps at 25 °C; 50 mM Tris pH 7.0, 25 mM NaCl; one-site binding model
His-LC3B = His-LC3B (human, UniProt Q9GZQ8 1-120); experiment: as above
His-GABARAPL2 = His-GABARAPL2 (human, UniProt P60520 1-117); experiment: as above
His-GABARAP = His-GABARAP (human, UniProt O95166 1-117); experiment: as above
His-GABARAPL1 = His-GABARAPL1 (human, UniProt Q9H0R8 1-117); experiment: as above
[1] = molecular target: T1, His-FLAG-hEPG5 (human EPG5, full length, wild type) (human, UniProt Q9HCE0 1-2579); experiment: pull-down; co-purification: His-FLAG-hEPG5 bound to Ni-NTA resin, GST-GABARAP applied, washed, eluted with imidazole; 50 mM Na phosphate pH 7.4, 150 mM NaCl, 0.01% TWEEN 20, 5% glycerol; complex seen on SDS-PAGE and by negative stain EM 2D class averages
T1 construct: His-FLAG tag from a modified pFastBacHTB; also called hEPG5^WT; ectopic P-granules autophagy protein 5

hEPG5^F794A = molecular target: T2, hEPG5^F794A (human, UniProt Q9HCE0 1-2579, F794A); experiment: pull-down; GST pull-down: purified GST-LC3A/B/C or GST-GABARAP/L1/L2 bait (200–240 µg) on glutathione resin, purified His-FLAG-hEPG5 or mutant (25–30 µg) as prey; 50 mM Tris pH 8.0, 150 mM NaCl, 5% glycerol, 0.01% Tween20, 0.5 mM DTT, 4 °C; anti-FLAG fluorescence western blot
T2 construct: also called third LIR motif mutant

hEPG5^Q336R = molecular target: T3, hEPG5^Q336R (human, UniProt Q9HCE0 1-2579, Q336R); experiment: as above
T3 construct: human EPG5, full length, with the Vici syndrome missense mutation Q336R (c.1007A>G); also called Gln336Arg; Vici syndrome mutant

hEPG5^Δ1–548 = molecular target: T4, hEPG5^Δ1–548 (human, UniProt Q9HCE0 549-2579); experiment: as above
T4 construct: also called truncated hEPG5 devoid of the region between the N-terminus and the two LIR motifs

hEPG5^Δ1770–2579 = molecular target: T5, hEPG5^Δ1770–2579 (human, UniProt Q9HCE0 1-1769); experiment: as above
T5 construct: also called truncated hEPG5 lacking the entire C-terminal region

hEPG5^W567A = molecular target: T6, hEPG5^W567A (human, UniProt Q9HCE0 1-2579, W567A); experiment: as above
T6 construct: also called LIR2 mutant
T6 sequence (Q9HCE0 whole entry W567A): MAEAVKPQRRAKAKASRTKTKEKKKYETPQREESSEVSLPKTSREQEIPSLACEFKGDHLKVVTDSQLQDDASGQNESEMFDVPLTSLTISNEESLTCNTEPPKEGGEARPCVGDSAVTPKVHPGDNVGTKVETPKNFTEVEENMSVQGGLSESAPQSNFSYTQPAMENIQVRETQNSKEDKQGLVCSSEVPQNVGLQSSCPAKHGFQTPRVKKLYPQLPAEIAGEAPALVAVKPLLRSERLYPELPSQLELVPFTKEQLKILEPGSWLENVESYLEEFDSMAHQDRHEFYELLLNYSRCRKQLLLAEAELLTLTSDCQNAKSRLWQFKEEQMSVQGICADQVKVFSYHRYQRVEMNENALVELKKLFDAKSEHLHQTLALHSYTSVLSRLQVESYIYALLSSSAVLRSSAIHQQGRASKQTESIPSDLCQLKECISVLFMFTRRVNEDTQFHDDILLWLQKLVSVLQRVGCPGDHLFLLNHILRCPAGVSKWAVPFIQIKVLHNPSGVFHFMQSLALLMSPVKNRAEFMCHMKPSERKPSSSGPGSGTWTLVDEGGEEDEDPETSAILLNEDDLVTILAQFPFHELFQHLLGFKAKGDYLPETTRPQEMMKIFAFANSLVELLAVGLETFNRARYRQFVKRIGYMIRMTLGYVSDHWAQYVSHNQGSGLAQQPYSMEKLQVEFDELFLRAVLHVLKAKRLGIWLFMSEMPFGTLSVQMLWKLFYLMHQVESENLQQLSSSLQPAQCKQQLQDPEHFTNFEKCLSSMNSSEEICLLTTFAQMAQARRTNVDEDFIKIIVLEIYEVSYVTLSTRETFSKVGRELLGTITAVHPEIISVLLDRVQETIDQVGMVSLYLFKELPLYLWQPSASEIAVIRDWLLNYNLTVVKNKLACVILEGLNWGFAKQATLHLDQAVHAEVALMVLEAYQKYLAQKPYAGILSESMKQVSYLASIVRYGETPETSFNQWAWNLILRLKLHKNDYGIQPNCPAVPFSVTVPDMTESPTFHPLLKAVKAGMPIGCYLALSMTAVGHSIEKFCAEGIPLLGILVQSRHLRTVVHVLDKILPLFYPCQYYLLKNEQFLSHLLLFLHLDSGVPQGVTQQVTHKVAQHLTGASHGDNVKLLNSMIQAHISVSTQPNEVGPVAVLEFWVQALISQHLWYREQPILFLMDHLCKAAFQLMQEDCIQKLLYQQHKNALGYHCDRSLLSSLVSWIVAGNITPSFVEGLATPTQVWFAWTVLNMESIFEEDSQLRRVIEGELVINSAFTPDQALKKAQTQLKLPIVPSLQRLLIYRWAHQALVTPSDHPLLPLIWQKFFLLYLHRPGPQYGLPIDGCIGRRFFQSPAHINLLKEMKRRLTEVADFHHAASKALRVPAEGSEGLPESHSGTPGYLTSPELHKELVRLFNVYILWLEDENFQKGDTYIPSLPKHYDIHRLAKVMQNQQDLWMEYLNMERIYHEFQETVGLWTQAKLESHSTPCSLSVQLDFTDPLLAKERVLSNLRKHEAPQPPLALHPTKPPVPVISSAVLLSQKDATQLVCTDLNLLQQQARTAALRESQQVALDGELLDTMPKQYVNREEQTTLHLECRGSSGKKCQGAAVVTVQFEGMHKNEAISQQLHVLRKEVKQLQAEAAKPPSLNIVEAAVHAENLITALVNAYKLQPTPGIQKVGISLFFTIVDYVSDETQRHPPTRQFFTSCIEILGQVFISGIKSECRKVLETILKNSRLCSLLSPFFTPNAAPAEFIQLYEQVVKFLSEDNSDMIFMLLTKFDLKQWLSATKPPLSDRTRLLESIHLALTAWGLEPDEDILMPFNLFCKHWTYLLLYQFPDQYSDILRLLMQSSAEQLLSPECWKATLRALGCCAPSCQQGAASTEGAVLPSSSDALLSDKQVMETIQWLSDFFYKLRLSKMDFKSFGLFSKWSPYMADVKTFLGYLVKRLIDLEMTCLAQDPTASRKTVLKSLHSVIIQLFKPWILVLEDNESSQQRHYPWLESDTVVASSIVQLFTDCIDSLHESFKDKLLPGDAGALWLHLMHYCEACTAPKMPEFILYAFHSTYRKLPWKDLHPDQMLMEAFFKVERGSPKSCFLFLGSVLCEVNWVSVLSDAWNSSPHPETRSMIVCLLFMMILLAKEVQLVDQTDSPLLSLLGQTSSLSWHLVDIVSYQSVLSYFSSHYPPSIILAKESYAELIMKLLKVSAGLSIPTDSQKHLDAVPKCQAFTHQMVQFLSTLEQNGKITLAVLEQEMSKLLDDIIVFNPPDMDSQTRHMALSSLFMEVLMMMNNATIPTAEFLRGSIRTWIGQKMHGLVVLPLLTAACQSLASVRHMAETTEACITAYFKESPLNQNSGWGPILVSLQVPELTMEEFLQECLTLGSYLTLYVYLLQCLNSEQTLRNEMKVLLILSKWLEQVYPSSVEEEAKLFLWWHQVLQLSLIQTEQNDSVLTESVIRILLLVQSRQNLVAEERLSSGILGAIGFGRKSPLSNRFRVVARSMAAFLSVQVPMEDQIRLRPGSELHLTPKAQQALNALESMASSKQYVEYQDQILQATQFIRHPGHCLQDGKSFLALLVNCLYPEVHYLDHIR

His-GABARAPL2, sequence (P60520 whole entry): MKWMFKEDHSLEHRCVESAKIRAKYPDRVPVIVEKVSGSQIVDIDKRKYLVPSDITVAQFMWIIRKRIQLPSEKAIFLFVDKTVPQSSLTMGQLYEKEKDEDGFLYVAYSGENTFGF
T3 sequence (Q9HCE0 whole entry Q336R): as the sequence (Q9HCE0 whole entry W567A) above, with Q336R, A567W counted along it
T1 sequence (Q9HCE0 whole entry): as the sequence (Q9HCE0 whole entry W567A) above, with A567W counted along it
His-GABARAPL1, sequence (Q9H0R8 whole entry): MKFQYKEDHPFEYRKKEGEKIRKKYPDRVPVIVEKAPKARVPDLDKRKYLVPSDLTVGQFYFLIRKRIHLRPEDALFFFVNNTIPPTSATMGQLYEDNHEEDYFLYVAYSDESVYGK
T4 sequence (Q9HCE0 549-2579, stated change not applied): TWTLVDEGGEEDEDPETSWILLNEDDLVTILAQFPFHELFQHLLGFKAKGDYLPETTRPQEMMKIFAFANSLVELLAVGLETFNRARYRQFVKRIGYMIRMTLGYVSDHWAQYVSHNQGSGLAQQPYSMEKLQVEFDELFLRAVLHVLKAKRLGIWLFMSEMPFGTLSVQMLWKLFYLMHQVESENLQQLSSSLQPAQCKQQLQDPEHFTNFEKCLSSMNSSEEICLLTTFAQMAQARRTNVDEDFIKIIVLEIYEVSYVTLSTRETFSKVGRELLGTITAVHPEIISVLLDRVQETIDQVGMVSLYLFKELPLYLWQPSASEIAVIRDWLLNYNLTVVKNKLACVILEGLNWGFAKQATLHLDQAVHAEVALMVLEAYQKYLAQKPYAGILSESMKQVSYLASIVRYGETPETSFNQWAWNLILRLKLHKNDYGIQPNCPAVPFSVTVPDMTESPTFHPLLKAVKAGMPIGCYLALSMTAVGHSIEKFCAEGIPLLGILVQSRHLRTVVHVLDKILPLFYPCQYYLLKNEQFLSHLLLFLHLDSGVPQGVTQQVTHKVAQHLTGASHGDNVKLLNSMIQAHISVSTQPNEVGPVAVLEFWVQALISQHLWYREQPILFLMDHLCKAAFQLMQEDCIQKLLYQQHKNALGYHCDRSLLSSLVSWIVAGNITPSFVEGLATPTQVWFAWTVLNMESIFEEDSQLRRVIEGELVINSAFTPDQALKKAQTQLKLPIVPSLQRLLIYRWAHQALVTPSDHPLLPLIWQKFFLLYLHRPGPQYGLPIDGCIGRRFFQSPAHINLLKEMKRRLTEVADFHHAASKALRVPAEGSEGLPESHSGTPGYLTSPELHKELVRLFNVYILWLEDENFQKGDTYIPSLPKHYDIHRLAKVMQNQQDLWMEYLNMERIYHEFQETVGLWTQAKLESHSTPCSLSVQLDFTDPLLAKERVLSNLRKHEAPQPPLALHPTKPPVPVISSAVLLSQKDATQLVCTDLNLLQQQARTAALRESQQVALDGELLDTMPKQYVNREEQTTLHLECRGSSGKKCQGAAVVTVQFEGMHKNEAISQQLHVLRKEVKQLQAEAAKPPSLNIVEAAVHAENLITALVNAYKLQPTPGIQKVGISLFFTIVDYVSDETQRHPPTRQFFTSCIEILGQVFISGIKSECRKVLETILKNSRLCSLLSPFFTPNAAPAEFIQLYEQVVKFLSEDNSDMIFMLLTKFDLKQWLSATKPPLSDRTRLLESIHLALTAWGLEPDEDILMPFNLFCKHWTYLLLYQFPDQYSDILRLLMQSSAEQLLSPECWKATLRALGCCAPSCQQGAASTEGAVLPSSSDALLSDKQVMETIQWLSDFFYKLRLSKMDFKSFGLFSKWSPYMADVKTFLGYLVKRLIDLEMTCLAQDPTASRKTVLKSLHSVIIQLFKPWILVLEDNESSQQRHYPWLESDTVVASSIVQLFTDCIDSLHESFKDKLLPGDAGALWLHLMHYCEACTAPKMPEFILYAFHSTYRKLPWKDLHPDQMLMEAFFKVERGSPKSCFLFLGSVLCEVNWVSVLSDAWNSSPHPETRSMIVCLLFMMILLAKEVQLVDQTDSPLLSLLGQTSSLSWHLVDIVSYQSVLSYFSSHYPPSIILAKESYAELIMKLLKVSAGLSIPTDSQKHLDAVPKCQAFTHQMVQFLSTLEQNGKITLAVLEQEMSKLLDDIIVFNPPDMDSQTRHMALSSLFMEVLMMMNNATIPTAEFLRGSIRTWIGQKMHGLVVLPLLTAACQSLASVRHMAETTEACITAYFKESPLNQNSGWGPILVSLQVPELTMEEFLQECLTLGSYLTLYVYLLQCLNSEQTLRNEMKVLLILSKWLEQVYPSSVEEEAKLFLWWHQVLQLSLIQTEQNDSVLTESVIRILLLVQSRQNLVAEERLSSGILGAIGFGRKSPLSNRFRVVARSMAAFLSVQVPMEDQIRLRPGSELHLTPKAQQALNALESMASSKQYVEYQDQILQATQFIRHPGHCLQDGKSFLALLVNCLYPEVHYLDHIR
T2 sequence (Q9HCE0 whole entry F794A): as the sequence (Q9HCE0 whole entry W567A) above, with A567W, F794A counted along it

DEDPETSWILLN (source: synthetic peptide (GenScript)) [hEPG5-LIR2 peptide] gave a Kd (His-LC3A) of 1.75 µM, a Kd (His-LC3B) of 4.07 µM and a Kd (His-GABARAPL2) of 0.68 µM. For the same binder, the Kd (His-GABARAP) was 0.16 µM.

B1: hEPG5-LIR1 peptide (peptide)
peptide: GSGTWTLVDEG
notes: human EPG5 residues 546-556, holding the LIR1 motif 550WTLV553; source: synthetic peptide (LifeTein)
B1 was tested, and the “fold KD relative to LIR1-GABARAP” value (His-LC3A) was 3 times, the Kd (His-GABARAPL2) was 11.8 µM and the Kd (His-GABARAP) was 7.47 µM. It also gave a Kd (His-GABARAPL1) of 8.54 µM.

B2: GST-GABARAP (natural protein, human, UniProt O95166 1-117, looked up)
chain: MKFVYKEEHPFEKRRSEGEKIRKKYPDRVPVIVEKAPKARIGDLDKKKYLVPSDLTVGQFYFLIRKRIHLRAEDALFFFVNNVIPPTSATMGQLYQEHHEEDFFLYIAYSDESVYGL
B2: binds [1]; binds (hEPG5^F794A); binds (hEPG5^Q336R). B2: binds (hEPG5^Δ1–548); binds (hEPG5^Δ1770–2579); binds (hEPG5^W567A).
